Where a chain is given by its changes, count along the chain named.
T1: CRP-MTB L47P (Mycobacterium tuberculosis, UniProt P9WMH3 1-224, L47P)
T1 sequence: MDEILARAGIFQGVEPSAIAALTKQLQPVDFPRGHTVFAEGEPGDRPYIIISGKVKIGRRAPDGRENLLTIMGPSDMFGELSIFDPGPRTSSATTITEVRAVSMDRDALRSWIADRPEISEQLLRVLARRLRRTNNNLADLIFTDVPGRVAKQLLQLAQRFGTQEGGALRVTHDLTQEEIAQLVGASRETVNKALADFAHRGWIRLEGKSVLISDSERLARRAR

T2: CRP-MTB E178K (Mycobacterium tuberculosis, UniProt P9WMH3 1-224, E178K)
T2 sequence: T1 sequence with P47L, E178K

T3: cAMP receptor protein from Mycobacterium tuberculosis (Mycobacterium tuberculosis), P9WMH3
T3 chain: T1 sequence with P47L

B1: SerC promoter 32-bp, fluorescein (dsDNA)
DNA 1: GCGCGTAGTGTGAACAAGCTCACATGCAAGCC
DNA 2: GGCTTGCATGTGAGCTTGTTCACACTACGCGC
B2: cAMP receptor protein from Mycobacterium tuberculosis, P9WMH3 (natural protein)
chain: T1 sequence with P47L

How the values were obtained:
[1] = target: T1, CRP-MTB L47P; assay: fluorescence anisotropy; no cAMP (apo); conditions: protein: recombinant; tags: His-tag (pET-3a); chain copies: 2; blunt
[2] = target: T2, CRP-MTB E178K; assay: fluorescence anisotropy; no cAMP (apo); conditions: protein: recombinant; tags: His-tag (pET-3a); chain copies: 2; blunt
[3] = target: T1, CRP-MTB L47P; assay: fluorescence anisotropy; 0.1 mM cAMP; conditions: protein: recombinant; tags: His-tag (pET-3a); chain copies: 2; blunt
[4] = target: T2, CRP-MTB E178K; assay: fluorescence anisotropy; 0.1 mM cAMP; conditions: protein: recombinant; tags: His-tag (pET-3a); chain copies: 2; blunt
[5] = target: T2, CRP-MTB E178K; assay: fluorescence anisotropy; 1 mM cAMP; conditions: protein: recombinant; tags: His-tag (pET-3a); chain copies: 2; blunt
[6] = target: T3, cAMP receptor protein from …; assay: SEC; conditions: remark: other sources report otherwise
[7] = target: T3, cAMP receptor protein from …; assay: AUC; conditions: remark: other sources report otherwise

Row | Binder | Ka [1] | Ka [2] | Ka [3] | Ka [4] | Ka [5] | stoichiometry N [6] | Kd [7] | stoichiometry N [7]
1 | B1 | 2.7 ± 0.9 1e8 M-1 | 15 ± 5.3 1e8 M-1 | 7.3 ± 3 1e8 M-1 | 10 ± 5 1e8 M-1 | 21 ± 12.9 1e8 M-1 |  |  | 
2 | B2 |  |  |  |  |  | 2 | < 10 nM | 2
